Experimental data as given in publication PMC10484741, “Human TRMT2A methylates tRNA and contributes to translation fidelity”.
Residue numbers refer to the chain shown, from its start. Names and notes keep the numbering of the source.

Columns and labels:
hTRMT2A FL (WT) [1] = biological target: T1, hTRMT2A FL (WT) (Homo sapiens, UniProt Q8IZ69 1-625); test: EMSA; low nM KD range; poly(U) competitor; EMSA: 50 mM HEPES-NaOH pH 7.5, 150 mM NaCl, 4% glycerol, 2.5 ng/ul poly(U), 5 nM RNA, 0-1.25 uM protein (final, as stated), 20 min room temperature; SPR: 150 mM NaCl, 50 mM HEPES-NaOH 7.5, 0.05% Tween, 25 C; settings: protein: recombinant; tags: N-terminal His-SUMO tag cleaved; label: 5'-32P; tRNA cloverleaf
T1 sequence: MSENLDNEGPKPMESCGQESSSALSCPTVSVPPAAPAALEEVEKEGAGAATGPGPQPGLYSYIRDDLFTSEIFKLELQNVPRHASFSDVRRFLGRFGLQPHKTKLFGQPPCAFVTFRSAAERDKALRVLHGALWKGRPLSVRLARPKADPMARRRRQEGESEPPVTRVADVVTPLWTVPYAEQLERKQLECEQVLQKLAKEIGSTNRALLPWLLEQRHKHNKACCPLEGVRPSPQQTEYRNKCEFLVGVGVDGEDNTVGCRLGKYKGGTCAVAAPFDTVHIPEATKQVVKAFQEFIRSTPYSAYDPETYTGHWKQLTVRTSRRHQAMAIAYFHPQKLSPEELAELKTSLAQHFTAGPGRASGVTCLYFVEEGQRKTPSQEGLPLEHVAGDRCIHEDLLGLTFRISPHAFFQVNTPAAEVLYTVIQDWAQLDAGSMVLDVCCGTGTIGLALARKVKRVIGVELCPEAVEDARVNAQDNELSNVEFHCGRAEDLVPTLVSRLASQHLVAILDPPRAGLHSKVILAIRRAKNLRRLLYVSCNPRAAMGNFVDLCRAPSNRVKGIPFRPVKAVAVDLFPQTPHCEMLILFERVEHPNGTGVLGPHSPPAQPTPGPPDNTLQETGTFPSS

hTRMT2A FL (WT) [2] = biological target: T1, hTRMT2A FL (WT); test: SPR; steady-state fit, apparent KD; EMSA: 50 mM HEPES-NaOH pH 7.5, 150 mM NaCl, 4% glycerol, 2.5 ng/ul poly(U), 5 nM RNA, 0-1.25 uM protein (final, as stated), 20 min room temperature; SPR: 150 mM NaCl, 50 mM HEPES-NaOH 7.5, 0.05% Tween, 25 C; settings: protein: recombinant; tags: N-terminal His-SUMO tag cleaved; label: 3' biotin; tRNA cloverleaf
[3] = biological target: T2, hTRMT2A CDM (catalytic death mutant) (Homo sapiens, UniProt Q8IZ69 1-625, E76A;K104E;F113A;K242A;F409A;Q411A;D510A;C538A); test: as above; settings: protein: recombinant; tags: N-terminal His-SUMO tag cleaved; label: 3' biotin; tRNA cloverleaf
T2 sequence: T1 sequence with E76A, K104E, F113A, K242A, F409A, Q411A, D510A, C538A

[4] = biological target: T2, hTRMT2A CDM (catalytic death mutant); test: EMSA; similar to WT, nM KD range, more supershifts; poly(U) competitor; EMSA: 50 mM HEPES-NaOH pH 7.5, 150 mM NaCl, 4% glycerol, 2.5 ng/ul poly(U), 5 nM RNA, 0-1.25 uM protein (final, as stated), 20 min room temperature; SPR: 150 mM NaCl, 50 mM HEPES-NaOH 7.5, 0.05% Tween, 25 C; settings: protein: recombinant; tags: N-terminal His-SUMO tag cleaved; label: 5'-32P; tRNA cloverleaf
hTRMT2A FL (WT) [5] = biological target: T1, hTRMT2A FL (WT); test: EMSA; low nM KD range; shift already at 60 nM; poly(U) competitor; EMSA: 50 mM HEPES-NaOH pH 7.5, 150 mM NaCl, 4% glycerol, 2.5 ng/ul poly(U), 5 nM RNA, 0-1.25 uM protein (final, as stated), 20 min room temperature; SPR: 150 mM NaCl, 50 mM HEPES-NaOH 7.5, 0.05% Tween, 25 C; settings: protein: recombinant; tags: N-terminal His-SUMO tag cleaved; label: 5'-32P; tRNA cloverleaf
hTRMT2A FL (WT) [6] = biological target: T1, hTRMT2A FL (WT); test: size exclusion chromatography; 1:1 mix; elution shift 17.41 to 15.46 ml; EMSA: 50 mM HEPES-NaOH pH 7.5, 150 mM NaCl, 4% glycerol, 2.5 ng/ul poly(U), 5 nM RNA, 0-1.25 uM protein (final, as stated), 20 min room temperature; SPR: 150 mM NaCl, 50 mM HEPES-NaOH 7.5, 0.05% Tween, 25 C; settings: protein: recombinant; tags: N-terminal His-SUMO tag cleaved; tRNA cloverleaf

B1: tRNAAla-AGC (A54) (structured_RNA)
RNA: GGGGAAUUAGCUCAGGCGGUAGAGCGCUCGCUUAGCAUGCGAGAGGUAGCGGGAUCGACGCCCGCAUUCUCCA
B1: binds (hTRMT2A FL (WT) [1]).

B2: tRNAGln-TTG, 3' biotin (structured_RNA)
RNA: GGUCCCAUGGUGUAAUGGUUAGCACUCUGGACUUUGAAUCCAGCGAUCCGAGUUCAAAUCUCGGUGGGACCUCCA
modifications: 3' biotin
B2 showed a Kd (hTRMT2A FL (WT) [2]) of 306 ± 60 nM and a Kd [3] of 428 ± 71 nM.

B3: tRNAGln-TTG (structured_RNA)
RNA: B2 RNA
B3: binds [4]; binds (hTRMT2A FL (WT) [5]).

B4: tRNAGln-TTG, unlabeled (structured_RNA)
RNA: B2 RNA
B4: binds (hTRMT2A FL (WT) [6]).

B5: tRNAGln U54G (structured_RNA)
RNA: B2 RNA with U53G
B5: binds (hTRMT2A FL (WT) [1]).
